Laboratory results taken from patent publication US9028824 (dated 2015).
Like-named read-outs stand apart in the source and are kept apart here. Each block holds one binder with its values, some of them ahead of it.

Tests used:
CD40 ECD-IgG1 fusion [1] = molecular target: T1, CD40 ECD-IgG1 fusion (human, UniProt P25942); experiment: other, up to 700 nM
[2] = molecular target: T2, CD271 (NGF receptor) ECD-IgG1 fusion (human, UniProt P08138); experiment: other, up to 700 nM
T2 chain: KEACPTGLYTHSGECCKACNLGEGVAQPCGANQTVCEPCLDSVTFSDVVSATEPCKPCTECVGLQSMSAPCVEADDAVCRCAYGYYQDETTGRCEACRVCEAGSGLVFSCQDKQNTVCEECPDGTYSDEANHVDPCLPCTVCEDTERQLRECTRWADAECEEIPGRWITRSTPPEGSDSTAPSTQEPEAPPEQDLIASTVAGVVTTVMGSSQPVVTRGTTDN

[3] = molecular target: T3, CD137 (4-1BB) ECD-IgG1 fusion (human, UniProt Q07011); experiment: other, up to 700 nM
T3 sequence (Q07011 24-186): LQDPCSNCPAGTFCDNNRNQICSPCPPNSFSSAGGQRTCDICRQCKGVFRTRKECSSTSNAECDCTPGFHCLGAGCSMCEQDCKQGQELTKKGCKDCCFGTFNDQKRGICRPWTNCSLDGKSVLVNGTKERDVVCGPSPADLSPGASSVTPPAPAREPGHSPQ

human OX40R on cells [4] = molecular target: T4, human OX40R on cells (human, UniProt P43489); experiment: FACS, OX40R+ 300-19 cells
T4 chain: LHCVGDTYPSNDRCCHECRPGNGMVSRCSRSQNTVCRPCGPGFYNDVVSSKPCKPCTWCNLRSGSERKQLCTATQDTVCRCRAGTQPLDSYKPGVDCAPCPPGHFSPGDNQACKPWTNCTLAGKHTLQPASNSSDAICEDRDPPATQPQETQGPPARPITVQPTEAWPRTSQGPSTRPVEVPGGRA

[5] = molecular target: T5, human OX40R extracellular domain fusion protein (CD134-muIg) (human, UniProt P43489); experiment: ELISA
T5 chain: T4 chain

[6] = molecular target: T3, CD137 (4-1BB) ECD-IgG1 fusion; experiment: other, up to 700 nM; remark: listed apart in the source
[7] = molecular target: T5, human OX40R extracellular domain fusion …; experiment: SPR
human OX40R on cells [8] = molecular target: T4, human OX40R on cells; experiment: FACS, CD3/CD28 stimulated T cells
murine OX40R ECD fusion = molecular target: T6, murine OX40R ECD fusion (mouse, UniProt P47741); experiment: ELISA
T6 chain: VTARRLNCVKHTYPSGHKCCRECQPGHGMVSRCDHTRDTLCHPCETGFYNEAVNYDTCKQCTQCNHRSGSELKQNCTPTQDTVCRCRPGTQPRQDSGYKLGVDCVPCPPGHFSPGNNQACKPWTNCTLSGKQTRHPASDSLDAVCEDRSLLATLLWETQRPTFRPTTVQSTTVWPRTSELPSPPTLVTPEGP

[9] = molecular target: T2, CD271 (NGF receptor) ECD-IgG1 fusion; experiment: other, up to 700 nM
CD40 ECD-IgG1 fusion [10] = molecular target: T1, CD40 ECD-IgG1 fusion; experiment: other, up to 700 nM; remark: listed apart in the source
human OX40R on cells [11] = molecular target: T4, human OX40R on cells; experiment: FACS, human T cells

T1 sequence (P25942 21-193): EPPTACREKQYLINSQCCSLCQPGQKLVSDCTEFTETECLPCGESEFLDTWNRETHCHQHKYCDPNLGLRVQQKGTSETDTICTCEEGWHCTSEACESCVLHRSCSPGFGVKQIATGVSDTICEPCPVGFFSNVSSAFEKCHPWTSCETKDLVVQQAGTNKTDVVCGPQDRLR

- binding result (CD40 ECD-IgG1 fusion [1]): no binding
- binding result [2]: no binding
- binding result [3]: no binding
B1: 18D8 (antibody, V domains shown)
VH: EVQLVESGGGLVQPGRSLRLSCAASGFTFDDYAMHWVRQAPGKGLEWVSGISWNSGSIGYADSVKGRFTISRDNAKNSLYLQMNSLRAEDTALYYCAKDQSTADYYFYYGMDVWGQGTTVTVSS
VL: EIVVTQSPATLSLSPGERATLSCRASQSVSSYLAWYQQKPGQAPRLLIYDASNRATGIPARFSGSGSGTDFTLTISSLEPEDFAVYYCQQRSNWPTFGQGTKVEIK

- EC50 (human OX40R on cells [4]): 1.7 nM
- EC50 [5]: 3.5 nM
- binding result [6]: no binding
- Kd [7]: 0.48 nM
- EC50 (human OX40R on cells [8]): 4 nM
- binding result (murine OX40R ECD fusion): no binding
- binding result [9]: no binding
- binding result (CD40 ECD-IgG1 fusion [10]): no binding
- EC50 (human OX40R on cells [11]): 0.566 µg/mL
B2: 11D4 (antibody, V domains shown)
VH: EVQLVESGGGLVQPGGSLRLSCAASGFTFSSYSMNWVRQAPGKGLEWVSYISSSSSTIDYADSVKGRFTISRDNAKNSLYLQMNSLRDEDTAVYYCARESGWYLFDYWGQGTLVTVSS
VL: DIQMTQSPSSLSASVGDRVTITCRASQGISSWLAWYQQKPEKAPKSLIYAASSLQSGVPSRFSGSGSGTDFTLTISSLQPEDFATYYCQQYNSYPPTFGGGTKVEIK
